Results on six molecules are retold here after patent US20140170137A1 (NVIP, published 2014).

Substitutions are numbered along the chain they refer to.

In experiment [1] the target is NGF (TF-1 cell proliferation assay). The experiment in a line: cell-based or functional assay.
Experiment [2] addresses T1, complement C1q (human, UniProt P02745 23-245; P02746 28-253; P02747 29-245).
T1 construct: Supplied as human serum diluted 1/100; detected with sheep anti-C1q-HRP
The experiment in a line: C1q ELISA, antibody captured on mouse NGF coated plates.

In experiment [3] the target is T2, mouse NGF (mouse, UniProt P01139 122-241).
T2 construct: also called murine NGF
Nature of the experiment: ELISA, CHO supernatant on murine NGF. Background: ELISA stands for enzyme-linked immunosorbent assay.

Experiment [4] addresses T1, complement C1q. The experiment in a line: C1q ELISA, antibody captured on mouse NGF, human serum 1/100.
Experiment [5] concerns the target T2, mouse NGF. The experiment in a line: binding ELISA to mouse NGF, CHO supernatants.
Experiment [6] has as its target T1, complement C1q. The experiment in a line: C1q ELISA, antibody captured on NGF.
The target of experiment [7] is T1, complement C1q. The experiment in a line: C1q ELISA, antibody captured on NGF coated plates.

T1 sequence (P02745 23-245 limits assumed, chain 1 of 3): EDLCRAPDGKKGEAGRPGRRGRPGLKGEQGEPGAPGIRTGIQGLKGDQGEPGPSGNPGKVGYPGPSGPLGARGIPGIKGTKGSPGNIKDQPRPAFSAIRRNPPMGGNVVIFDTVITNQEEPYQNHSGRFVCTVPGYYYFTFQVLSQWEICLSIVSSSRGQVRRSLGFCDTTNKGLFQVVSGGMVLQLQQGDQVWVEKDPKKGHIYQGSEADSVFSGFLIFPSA
T1 sequence (P02746 28-253 limits assumed, chain 2 of 3): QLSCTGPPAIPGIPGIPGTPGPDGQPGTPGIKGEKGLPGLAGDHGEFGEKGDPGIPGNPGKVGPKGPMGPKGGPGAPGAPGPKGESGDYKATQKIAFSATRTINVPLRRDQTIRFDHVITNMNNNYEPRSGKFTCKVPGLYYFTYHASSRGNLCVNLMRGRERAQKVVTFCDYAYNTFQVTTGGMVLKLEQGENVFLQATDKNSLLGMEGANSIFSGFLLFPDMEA
T1 sequence (P02747 29-245 limits assumed, chain 3 of 3): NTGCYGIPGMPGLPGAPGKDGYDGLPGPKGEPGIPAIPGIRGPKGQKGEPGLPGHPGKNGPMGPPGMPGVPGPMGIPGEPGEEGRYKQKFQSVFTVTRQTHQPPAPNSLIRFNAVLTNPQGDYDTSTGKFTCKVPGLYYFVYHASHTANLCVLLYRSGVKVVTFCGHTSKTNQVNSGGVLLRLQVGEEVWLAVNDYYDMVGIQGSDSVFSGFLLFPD
T2 sequence (P01139 122-241 limits assumed): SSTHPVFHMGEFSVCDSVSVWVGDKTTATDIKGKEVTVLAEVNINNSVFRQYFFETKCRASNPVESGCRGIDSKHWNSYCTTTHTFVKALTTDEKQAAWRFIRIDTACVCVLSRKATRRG
NGF (TF-1 cell proliferation assay), sequence (P01138 122-241): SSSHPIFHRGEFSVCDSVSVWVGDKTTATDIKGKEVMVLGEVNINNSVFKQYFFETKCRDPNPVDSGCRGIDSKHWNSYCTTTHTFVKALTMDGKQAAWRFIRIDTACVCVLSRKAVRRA

B1: caN-HCA-kLC (antibody)
heavy: EVQLVESGGDLVNPGGTLTLSCVVSGFSLTNNNVNWVRQALGRGLEWVGGVWAGGATDYNSALKSRLTITRDTSKSTVFLKMHSLQSEDTATYYCARDGGYSSSTLYAMDAWGQGTLVTVSSASTTAPSVFPLAPSCGSTSGSTVALACLVSGYFPEPVTVSWNSGSLTSGVHTFPSVLQSSGLHSLSSMVTVPSSRWPSETFTCNVVHPASNTKVDKPVFNECRCTDTPPCPVPEPLGGPSVLIFPPKPKDILRITRTPEVTCVVLDLGREDPEVQISWFVDGKEVHTAKTQSREQQFNGTYRVVSVLPIEHQDWLTGKEFKCRVNHIDLPSPIERTISKARGRAHKPSVYVLPPSPKELSSSDTVSITCLIKDFYPPDIDVEWQSNGQQEPERKHRMTPPQLDEDGSYFLYSKLSVDKSRWQQGDPFTCAVMHETLQNHYTDLSLSHSPGK
light: DIQMTQSPASLSLSQEEKVTITCRASEDIYNALAWYQQKPGQAPKLLIYNTDTLHTGVPSRFSGSGSGTEYSLTINSLESEDVAVYFCQHYFHYPRTFGAGTKVELKRNDAQPAVYLFQPSPDQLHTGSASVVCLLNSFYPKDINVKWKVDGVIQDTGIQESVTEQDKDSTYSLSSTLTMSSTEYLSHELYSCEITHKSLPSTLIKSFQRSECQRVD
notes: Caninised aD11 VH joined to canine HCA (caIgG-A) constant domain; caninised aD11 VL joined to canine kappa constant domain; also called caninised anti-NGF antibody, HCA isotype; anti-canine NGF antibody (HCA isotype)
Regarding B1, the “IC50, TF-1 NGF neutralisation assay” value in experiment [1] stood at 0.013 nM. The figures for the binding result in experiment [2] and in experiment [3] were “no binding (tested: human serum diluted 1/100)” and “binds”, respectively.

B2: caN-HCC-kLC (antibody)
heavy: EVQLVESGGDLVNPGGTLTLSCVVSGFSLTNNNVNWVRQALGRGLEWVGGVWAGGATDYNSALKSRLTITRDTSKSTVFLKMHSLQSEDTATYYCARDGGYSSSTLYAMDAWGQGTLVTVSSASTTAPSVFPLAPSCGSQSGSTVALACLVSGYIPEPVTVSWNSVSLTSGVHTFPSVLQSSGLYSLSSMVTVPSSRWPSETFTCNVAHPATNTKVDKPVAKECECKCNCNNCPCPGCGLLGGPSVFIFPPKPKDILVTARTPTVTCVVVDLDPENPEVQISWFVDSKQVQTANTQPREEQSNGTYRVVSVLPIGHQDWLSGKQFKCKVNNKALPSPIEEIISKTPGQAHQPNVYVLPPSRDEMSKNTVTLTCLVKDFFPPEIDVEWQSNGQQEPESKYRMTPPQLDEDGSYFLYSKLSVDKSRWQRGDTFICAVMHEALHNHYTQISLSHSPGK
light: B1 light
notes: Caninised aD11 VH joined to canine HCC (caIgG-C) constant domain; canine kappa light chain; CHO supernatant; also called caninised anti-NGF antibody, HCC isotype
With B2, the binding result in experiment [4] and in experiment [5] was “binds” each time.

B3: caN-HCB-kLC (antibody)
heavy: EVQLVESGGDLVNPGGTLTLSCVVSGFSLTNNNVNWVRQALGRGLEWVGGVWAGGATDYNSALKSRLTITRDTSKSTVFLKMHSLQSEDTATYYCARDGGYSSSTLYAMDAWGQGTLVTVSSASTTAPSVFPLAPSCGSTSGSTVALACLVSGYFPEPVTVSWNSGSLTSGVHTFPSVLQSSGLYSLSSMVTVPSSRWPSETFTCNVAHPASKTKVDKPVPKRENGRVPRPPDCPKCPAPEMLGGPSVFIFPPKPKDTLLIARTPEVTCVVVDLDPEDPEVQISWFVDGKQMQTAKTQPREEQFNGTYRVVSVLPIGHQDWLKGKQFTCKVNNKALPSPIERTISKARGQAHQPSVYVLPPSREELSKNTVSLTCLIKDFYPPDIDVEWQSNGQQEPESKYRTTPPQLDEDGSYFLYSKLSVDKSRWQRGDTFICAVMHEALHNHYTQESLSHSPGK
light: B1 light
notes: Caninised aD11 VH joined to canine HCB (caIgG-B) constant domain; canine kappa light chain; CHO supernatant; also called caninised anti-NGF antibody, HCB isotype
In the case of B3, the binding result in experiment [4] and in experiment [5] was “binds” in each case.

B4: caN-HCD-kLC (antibody)
heavy: EVQLVESGGDLVNPGGTLTLSCVVSGFSLTNNNVNWVRQALGRGLEWVGGVWAGGATDYNSALKSRLTITRDTSKSTVFLKMHSLQSEDTATYYCARDGGYSSSTLYAMDAWGQGTLVTVSSASTTAPSVFPLAPSCGSTSGSTVALACLVSGYFPEPVTVSWNSGSLTSGVHTFPSVLQSSGLYSLSSTVTVPSSRWPSETFTCNVVHPASNTKVDKPVPKESTCKCISPCPVPESLGGPSVFIFPPKPKDILRITRTPEITCVVLDLGREDPEVQISWFVDGKEVHTAKTQPREQQFNSTYRVVSVLPIEHQDWLTGKEFKCRVNHIGLPSPIERTISKARGQAHQPSVYVLPPSPKELSSSDTVTLTCLIKDFYPPEIDVEWQSNGQPEPESKYHTTAPQLDEDGSYFLYSKLSVDKSRWQQGDTFTCAVMHEALQNHYTDLSLSHSPGK
light: B1 light
notes: Caninised aD11 VH joined to canine HCD (caIgG-D) constant domain; canine kappa light chain; CHO supernatant; also called caninised anti-NGF antibody, HCD isotype
With B4, the binding result in experiment [2] is reported as “no binding (tested: human serum diluted 1/100)”; in experiment [3], “binds”.

B5: anti-NGF MAb with aglycosyl HCC heavy chain (HCC*) (antibody)
heavy: B2 heavy with N303A
light: B1 light
B5: the binding result in experiment [6] and in experiment [5] was “binds” in each case.

B6: anti-NGF MAb with aglycosyl HCB heavy chain (HCB*) (antibody)
heavy: B3 heavy with N305A
light: B1 light
notes: also called aglycosylated HCB*; aglycosyl HCB* isotype anti-NGF antibody
In the case of B6, the binding result in experiment [7] is given as “no binding (tested: human serum diluted 1/100)”; in experiment [5] it was “binds”.
